Laboratory results from the supplement of paper PMC9112550, “Optimization of the antimicrobial peptide Bac7 by deep mutational scanning” (BMC Biology, 2022).

Test system: Escherichia coli TOP10
Experiment: shrunken log2 fold change of peptide-encoding DNA abundance (4.5 h post-induction vs induction); higher = less antimicrobial activity (less host growth inhibition)
Conditions: time post-induction: 4.5 h; library: site-saturation at positions 5, 18, 19, 20
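Further: peptides expressed intracellularly from a pBAD plasmid library in pooled LB shake-flask culture, induced with 0.3% L-arabinose, DNA abundance read by NGS, three biological replicates, DESeq2 with apeglm shrinkage.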

| Sequence | shrunken log2 fold change |
| --- | --- |
| RRIRQRPPRLPRPRPRPTCRPRP | 0.133 |
| RRIRHRPPRLPRPRPRPMPQPRP | 0.235 |
| RRIRERPPRLPRPRPRPCYAPRP | -0.383 |
| RRIRIRPPRLPRPRPRPGKQPRP | -0.0943 |
| RRIRHRPPRLPRPRPRPMWLPRP | -0.362 |
| RRIRIRPPRLPRPRPRPLINPRP | -0.444 |
| RRIRLRPPRLPRPRPRPVIIPRP | -0.242 |
| RRIRWRPPRLPRPRPRPYVCPRP | -0.00902 |
| RRIRQRPPRLPRPRPRPGPYPRP | -0.0528 |
| RRIRQRPPRLPRPRPRPKHLPRP | 0.0736 |
| RRIRDRPPRLPRPRPRPWACPRP | 0.0329 |
| RRIRNRPPRLPRPRPRPEGVPRP | 0.205 |
| RRIRGRPPRLPRPRPRPQMYPRP | 0.0854 |
| RRIRYRPPRLPRPRPRPLNVPRP | 0.0468 |
| RRIRLRPPRLPRPRPRPQAFPRP | 0.0474 |
| RRIRYRPPRLPRPRPRPGINPRP | -0.227 |
| RRIRARPPRLPRPRPRPQFHPRP | -0.116 |
| RRIRARPPRLPRPRPRPKIWPRP | 0.53 |
| RRIRGRPPRLPRPRPRPAYDPRP | 0.326 |
| RRIRFRPPRLPRPRPRPNFWPRP | 0.15 |
| RRIRQRPPRLPRPRPRPWRIPRP | -0.416 |
| RRIRPRPPRLPRPRPRPREQPRP | 0.00917 |
| RRIRKRPPRLPRPRPRPLAKPRP | 0.614 |

| Sequence | shrunken log2 fold change |
| --- | --- |
| RRIRRRPPRLPRPRPRPIKQPRP | 0.197 |
| RRIRDRPPRLPRPRPRPGFKPRP | 0.0624 |
| RRIRPRPPRLPRPRPRPCDLPRP | -0.428 |
| RRIRRRPPRLPRPRPRPDSIPRP | -0.199 |
| RRIRARPPRLPRPRPRPRPKPRP | 0.916 |
| RRIRIRPPRLPRPRPRPENMPRP | -0.396 |
| RRIRARPPRLPRPRPRPICPPRP | 0.0597 |
| RRIRIRPPRLPRPRPRPGANPRP | 0.0193 |
| RRIRVRPPRLPRPRPRPFINPRP | -0.192 |
| RRIRERPPRLPRPRPRPSLSPRP | -0.573 |
| RRIRLRPPRLPRPRPRPDCYPRP | -0.558 |
| RRIRMRPPRLPRPRPRPFHYPRP | -0.63 |
| RRIRMRPPRLPRPRPRPFANPRP | -0.0062 |
| RRIRTRPPRLPRPRPRPMKLPRP | -0.192 |
| RRIRLRPPRLPRPRPRPMEHPRP | -0.00579 |
| RRIRNRPPRLPRPRPRPMSHPRP | -0.249 |
| RRIRFRPPRLPRPRPRPCSCPRP | -0.879 |
| RRIRKRPPRLPRPRPRPWSCPRP | -0.22 |
| RRIRKRPPRLPRPRPRPRDRPRP | 1.26 |
| RRIRTRPPRLPRPRPRPHMQPRP | -0.249 |
| RRIRLRPPRLPRPRPRPSCAPRP | -0.00959 |
| RRIRTRPPRLPRPRPRPLMPPRP | 0.0315 |
| RRIRKRPPRLPRPRPRPGYEPRP | -0.0888 |

| Sequence | shrunken log2 fold change |
| --- | --- |
| RRIRNRPPRLPRPRPRPDMGPRP | -0.00968 |
| RRIRSRPPRLPRPRPRPHFDPRP | 0.0286 |
| RRIRYRPPRLPRPRPRPFNDPRP | -0.102 |
| RRIRDRPPRLPRPRPRPTTVPRP | 0.258 |
| RRIRHRPPRLPRPRPRPLQFPRP | -0.28 |
| RRIRGRPPRLPRPRPRPTARPRP | 1.27 |
| RRIRKRPPRLPRPRPRPYLAPRP | -0.295 |
| RRIRKRPPRLPRPRPRPLFDPRP | -0.0965 |
| RRIRGRPPRLPRPRPRPGWPPRP | 1.18 |
| RRIRQRPPRLPRPRPRPCEQPRP | -0.105 |
| RRIRHRPPRLPRPRPRPYPWPRP | -0.113 |
| RRIRFRPPRLPRPRPRPSKGPRP | -0.115 |
| RRIRRRPPRLPRPRPRPKCNPRP | -0.0456 |
| RRIRPRPPRLPRPRPRPCMKPRP | -0.0472 |
| RRIRERPPRLPRPRPRPWGDPRP | 0.108 |
| RRIRQRPPRLPRPRPRPFWHPRP | -0.469 |
| RRIRDRPPRLPRPRPRPWMSPRP | -0.376 |
| RRIRNRPPRLPRPRPRPFHRPRP | -0.211 |
| RRIRGRPPRLPRPRPRPEYPPRP | 0.77 |
| RRIRARPPRLPRPRPRPKFLPRP | 0.288 |
| RRIRTRPPRLPRPRPRPIEEPRP | 0.0678 |
| RRIRNRPPRLPRPRPRPDKKPRP | -0.0263 |
| RRIRQRPPRLPRPRPRPNLKPRP | -0.196 |

| Sequence | shrunken log2 fold change |
| --- | --- |
| RRIRMRPPRLPRPRPRPWPQPRP | 0.729 |
| RRIRQRPPRLPRPRPRPRFIPRP | -0.398 |
| RRIRFRPPRLPRPRPRPGGNPRP | 0.149 |
| RRIRFRPPRLPRPRPRPYFIPRP | -1.12 |
| RRIRHRPPRLPRPRPRPACCPRP | -0.0888 |
| RRIRNRPPRLPRPRPRPWDPPRP | -0.00879 |
| RRIRLRPPRLPRPRPRPKRGPRP | 0.483 |
| RRIRERPPRLPRPRPRPAKPPRP | -0.248 |
| RRIRTRPPRLPRPRPRPYIWPRP | -0.329 |
| RRIRPRPPRLPRPRPRPTTTPRP | 0.142 |
| RRIRHRPPRLPRPRPRPSINPRP | -0.605 |
| RRIRCRPPRLPRPRPRPRTPPRP | 0.571 |
| RRIRMRPPRLPRPRPRPHMIPRP | -0.159 |
| RRIRRRPPRLPRPRPRPPQQPRP | 0.951 |
| RRIRNRPPRLPRPRPRPGWKPRP | -0.00965 |
| RRIRMRPPRLPRPRPRPHNHPRP | -0.239 |
| RRIRDRPPRLPRPRPRPFLNPRP | -0.243 |
| RRIRPRPPRLPRPRPRPAISPRP | -0.103 |
| RRIRARPPRLPRPRPRPDPRPRP | 0.254 |
| RRIRFRPPRLPRPRPRPAMWPRP | 0.0848 |
| RRIRVRPPRLPRPRPRPMNNPRP | -0.694 |
| RRIRRRPPRLPRPRPRPQNVPRP | 0.0718 |
